One protein from article PMC5364132, “Anti-Biofilm Activity of a Self-Aggregating Peptide against Streptococcus mutans” (Frontiers in Microbiology, 2017) can be followed below.

This series concerns the molecule itself. The series can be described thus: FTIR spectroscopy; peptides at 1 and 0.1 mg/ml in PBS, 8 μl dried as thin films on the ATR surface; spectra 1800-1500 cm^-1; peaks at 1621 and 1695 cm^-1 read as antiparallel β-sheet assembly.

B1: synthetic peptide P1 (peptide)
peptide: PARKARAATAATAATAATAATAAT
notes: 24-amino acid synthetic peptide designed with repeated motifs of the Ixodes tick antifreeze glycoprotein (IAFGP); Not the streptococcal adhesin P1 (AgI/II, PAc); also called antivirulence peptide P1; source: synthetic peptide (Genscript, >80% purity)
Turning to B1, the binding result is reported as “binds”.
